The text below walks through data of PMC4703059.

This assay concerns the target Full-length wt Lst7 (K. lactis) with C-terminal Strep tag (Kluyveromyces lactis). The experiment in a line: AUC + SEC-MALS; purified K. lactis Lst7/Lst4 complex; AUC sedimentation velocity with interference data at 0.15 mg/ml, SEDFIT; SEC-MALS of 50 µg in 50 µl on TSKgel SuperSW2000 in PBS, 0.35 ml/min.

B1: Engineered Lst4 (K. lactis) aa58-714 with a deletion of the intra-DENN loop (aa 388-534) (domain or fragment)
chain: NDRLHNGGFRLIISQELGHVTSRNNYQVVLDHSSVNFHTGAHIPLNELKDYIFGSSIRTIDYSASSDKIKVVKSANIVLFTRIFYLNEKSTLRIAISCCVTDDVLPVLTECWPHISSFLDQCENTLLKYLAKNDTQFLPHDWKARNCIEVAAVLQTFQRKIIPLLSGYSDTPRLFLYPMDSIPYIKTWVKYVTNWIELKDGPRVRFLPILLAKLRYDFASLLKENSNTRIVILTGNMNVANRLIFILTAFLGPHFRGTLHKSINSQGCPSPAGRKMSNMSGASDFPFELKPSNSSITETNKGWEIPRIKRDPTFSVTSVSSDETGVQTFILNDAFADLVIDPPSYDTTVSNEKHGEIVEVNMASPRKQRNNQNQELLRRFTSYTPHYNQWFQLQACQITTESENKVIHSMKRDLTYADQDPCKKDKSTSTLLISLRSREIKQVTIVRDTNNRFIQRTKKILQNGKVGPVSRAMLSGIETTDQHLKKLMECNNDNEALVSLFNDIVTCAST
For orientation: stoichiometry N means a count of units in the complex or per binding partner. For B1, the stoichiometry N came to 1.
